Laboratory results as given in patent US20090075929A1 (BOARD OF TRUSTEES OF THE UNIVERSITY OF ILLINOIS, published 2009).

B1: caspase-8 (pro-caspase-8, p55/53), endogenous (enzyme, UniProt Q14790 1-479, looked up)
chain: MDFSRNLYDIGEQLDSEDLASLKFLSLDYIPQRKQEPIKDALMLFQRLQEKRMLEESNLSFLKELLFRINRLDLLITYLNTRKEEMERELQTPGRAQISAYRVMLYQISEEVSRSELRSFKFLLQEEISKCKLDDDMNLLDIFIEMEKRVILGEGKLDILKRVCAQINKSLLKIINDYEEFSKERSSSLEGSPDEFSNGEELCGVMTISDSPREQDSESQTLDKVYQMKSKPRGYCLIINNHNFAKAREKVPKLHSIRDRNGTHLDAGALTTTFEELHFEIKPHDDCTVEQIYEILKIYQLMDHSNMDCFICCILSHGDKGIIYGTDGQEAPIYELTSQFTGLKCPSLAGKPKVFFIQACQGDNYQKGIPVETDSEEQPYLEMDLSSPQTRYIPDEADFLLGMATVNNCVSYRNPAEGTWYIQSLCQSLRERCPRGDDILTILTEVNYEVSNKDDKKNMGKQMPQPTFTLRKKLVFPSD
B2: FADD, endogenous (other, UniProt Q13158 1-208, looked up)
chain: MDPFLVLLHSVSSSLSSSELTELKFLCLGRVGKRKLERVQSGLDLFSMLLEQNDLEPGHTELLRELLASLRRHDLLRRVDDFEAGAAAGAAPGEEDLCAAFNVICDNVGKDWRRLARQLKVSDTKIDSIEDRYPRNLTERVRESLRIWKNTEKENATVAHLVGALRSCQMNLVADLVQEVQQARDLQNRSGAMSPMSWNSDASTSEAS

Experiments:
[1] = target: T1, wild-type MADD (wtMADD), YFP-tagged, expressed in HEK293 or HeLa cells (Homo sapiens (Human), UniProt Q8WXG6 1-1647, phosphorylated in cells at S70, T173 and T1041 (recognized by anti-phospho S70, T173 and T1041 antibodies)); experiment: co-IP with anti-IG20 antibody from HeLa cells expressing MADD-YFP, western blot; also not seen in the reverse IP with anti-caspase-8
T1 construct: Exogenous MADD detected with anti-YFP antibody; Order of MADD and YFP is uncertain; also called YFP-MADD; exogenous MADD; not shown: YFP tag
Description: (§1) These proteins were separated by SDS-PAGE and subjected to western blot analysis to probe for DISC components.
(§2) Samples were lysed, and the lysates were normalized for protein concentration and pre-cleared. […] Complexes were subjected to immunoblotting (WB, Western blot).

[2] = target: T2, DR4 (death receptor 4, a TRAIL receptor), endogenous (UniProt O00220 24-468); experiment: IP of DR4 from HeLa lysates, immunoblot for FADD
T2 construct: Endogenous protein immunoprecipitated or blotted from lysates of human cell lines; also called endogenous DR4; DRs
Description: DR4 and DR5 from HeLa and PA-1 cells respectively were immunoprecipitated and probed for known DISC components. […] Forty-eight-hour transduced HeLa cells and PA-1 cells were collected and lysed. Lysates were normalized for protein concentration, and DR4s/DR5s were immunoprecipitated using specific antibodies.

[3] = target: T1, wild-type MADD (wtMADD), YFP-tagged, …; experiment: co-IP from HeLa cells expressing MADD-YFP, western blot
Description: as §1, §2

Row | Binder | binding result [1] | binding result [2] | binding result [3]
1 | B1 | no binding | – | –
2 | B2 | – | binds | no binding
